According to publication PMC8083607 (National Science Review, 2021):

Assays:
Assay in all cases: ELISA
Conditions in all cases: both partners purified
[1] = molecular target: SARS-CoV RBD (Severe acute respiratory syndrome …, UniProt P59594)
[2] = molecular target: SARS-CoV NTD (SARS-CoV, strain not named (reference …, UniProt P59594))
[3] = molecular target: T1, SARS-CoV-2 NTD (recombinant, limits not stated) (SARS-CoV-2 Wuhan-Hu-1 (MN908947.3), UniProt P0DTC2)
T1 construct: also called N-terminal domain

[4] = molecular target: SARS-CoV-2 S2 (recombinant) (SARS-CoV-2 Wuhan-Hu-1 (MN908947.3 used …, UniProt P0DTC2))
[5] = molecular target: SARS-CoV S2 (SARS-CoV, strain not named (reference …, UniProt P59594))
[6] = molecular target: MERS-CoV S2 (MERS-CoV, strain not named (entry: …, UniProt K9N5Q8))
Chain of MERS-CoV S2 (MERS-CoV, strain not named (K9N5Q8 whole entry, looked up): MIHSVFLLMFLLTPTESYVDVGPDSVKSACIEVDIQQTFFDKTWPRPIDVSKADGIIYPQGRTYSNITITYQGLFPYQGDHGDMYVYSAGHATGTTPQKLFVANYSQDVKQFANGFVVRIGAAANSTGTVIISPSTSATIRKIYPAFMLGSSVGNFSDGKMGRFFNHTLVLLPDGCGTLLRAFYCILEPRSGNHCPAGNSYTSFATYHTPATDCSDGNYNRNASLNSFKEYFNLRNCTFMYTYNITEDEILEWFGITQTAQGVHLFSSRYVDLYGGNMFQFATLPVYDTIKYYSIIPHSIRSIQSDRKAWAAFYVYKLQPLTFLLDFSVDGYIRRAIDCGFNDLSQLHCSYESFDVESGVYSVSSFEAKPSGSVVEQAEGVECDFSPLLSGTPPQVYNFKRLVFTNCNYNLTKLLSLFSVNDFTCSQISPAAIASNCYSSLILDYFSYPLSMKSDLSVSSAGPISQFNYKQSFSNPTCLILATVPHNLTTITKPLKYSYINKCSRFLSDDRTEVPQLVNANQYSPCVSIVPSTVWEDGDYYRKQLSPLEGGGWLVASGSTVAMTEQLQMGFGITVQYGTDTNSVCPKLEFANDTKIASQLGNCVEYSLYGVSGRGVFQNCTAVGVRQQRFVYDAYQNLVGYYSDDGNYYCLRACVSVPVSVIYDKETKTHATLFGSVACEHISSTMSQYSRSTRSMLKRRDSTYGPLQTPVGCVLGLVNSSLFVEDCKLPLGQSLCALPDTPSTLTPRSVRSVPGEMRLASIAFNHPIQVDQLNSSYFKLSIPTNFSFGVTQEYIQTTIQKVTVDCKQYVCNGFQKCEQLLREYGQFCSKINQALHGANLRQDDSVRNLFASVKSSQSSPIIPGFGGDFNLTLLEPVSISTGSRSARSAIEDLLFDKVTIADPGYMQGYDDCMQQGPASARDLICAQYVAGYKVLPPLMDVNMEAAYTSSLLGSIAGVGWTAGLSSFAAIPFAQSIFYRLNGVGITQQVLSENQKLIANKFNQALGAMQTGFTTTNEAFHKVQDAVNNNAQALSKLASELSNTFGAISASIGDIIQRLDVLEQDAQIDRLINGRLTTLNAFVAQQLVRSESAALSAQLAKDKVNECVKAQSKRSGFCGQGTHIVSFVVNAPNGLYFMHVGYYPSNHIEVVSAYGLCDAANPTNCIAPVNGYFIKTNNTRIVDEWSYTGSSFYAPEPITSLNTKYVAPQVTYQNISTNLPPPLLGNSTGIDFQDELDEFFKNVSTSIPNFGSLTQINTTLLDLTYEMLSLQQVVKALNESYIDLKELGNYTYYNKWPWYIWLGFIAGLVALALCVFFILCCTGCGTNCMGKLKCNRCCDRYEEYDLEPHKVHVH

B1: FC11 (antibody, V domains shown)
VH: EVQLLESGGGVVQPGRSLRLSCAASGFTFSYYGMHWVRQAPGTGLEWVAVISYDGSNEYYADSVKGRFTISRDNSKNTLYLQMNSLRAEDTAVYYCAKAMFLGDSSGLTGLDMDVWGQGTTVTVSS
VL: DIELTQSPGTLSLSPGERATLSCRASQSVSSYLAWYQQKPGQAPRLLIYDASNRATGIPARFSGSGSGTDFTLTISSLEPEDFALYYCQQRGNWPPTFGGGTKLEIK
B1: binds [1].

B2: FC07 (antibody, V domains shown)
VH: EVQLLESGGGLVQPGGSLRLSCAASGFTFGSYAMSWVRQAPGKGLEWVSSISGSGGSTYYADSAKGRFTISRDNSKNTLYLQMNSLRAEDTAVYYCAKSPNYDILTGYYNWAGYYFDYWGQGTLVTVSS
VL: DIELTQSPGTLSLSPGDRATLSCRASRGVSSNSLAWYRQRPGESPRLVISGASTRATGIPERFSGSGSGTDFSLSISRLQPEDFAVYYCQQYGSFPFTFGPGTTVDV
B2: binds [2]; binds [3].

B3: FC124 (antibody, V domains shown)
VH: EVQLLESGGGVVQPGRSLRLSCAASGFTFSSYAMHWVRQAPGKGLEWVALISYDGINKYYADSVNGRFTISRDNSKYTLYLQMNSLRAEDTAVYYCARAHRGSYYYGMDVWGQGTMVTVSS
VL: DIELTQSPGTLSLSPGERATLYCRASQSVSSSYLAWYQQKPGQAPRLLIYGAFGRAAGIPDRFRGSGSGTQFTLTISRLEPEDSAVYFCQQYGQSPLYSFGQGTKLEIK
B3: binds [4]; binds [5]; binds [6].

B4: FC118 (antibody, V domains shown)
VH: EVQLLESGGGVVQPGRSLRLSCAASGFTFSSYAMHWVRQAPGKGLEWVAVISYDGSNKYYADSVKGRFTISRDNSKNTLYLQMNSLRAEDTAVYYCARARGGSYLYGMDVWGQGAMVTVSS
VL: DIELTQSPSSLAASVGDTVTITCRASQTIGKYLTWYQKKPGRAPDLLIYAASRLQSGVPSRFSGRASGTEFTLTISSLQPEDFATYFCQHTYRTLSFGPGTKVDLK
B4: binds [4]; binds [5]; binds [6].

B5: FC122 (antibody, V domains shown)
VH: EVQLLESGGGVVQPGRSLRLSCAASGFTFSSYAMHWVRQAPGKGLEWVALISYDGINKYYADSVNGRFTISRDNSKYTLYLQMNSLRAEDTAVYYCARAHRGSYYYGMDVWGQGTMVTVSS
VL: DIELTQSPSSLSASVGDSVTITCRGSQIISRYLNWYQQKPGKAPKLLIYAASTLQSGVPSRFSGSGSGTEFTLSISSLEPEDFATYYCQQSYAIPYTFGQGTRLEI
B5: binds [4].

B6: FC06 (antibody, V domains shown)
VH: EVQLLESGGGVVQPGRSLRLSCAASGFTFSSYAMHWVRQAPGEGLEWVAVISYDGSNKYYADSVKGRFTISRDNSKNTLYLQMNSLRAGDTAVYYCARLNYYGSGFYYRLGDDYWGQGTLVTVSS
VL: DIELTQSPSSLSASEGDRVTITCRASQGIRNDLGWYQQKPGKAPKRLIYGAPSLQSGVPSRFSGSGSGTEFTLTISTLQPEDSATYYCLQHNKYPWTFGQGTKVEIK
B6: binds [3].

B7: FC120 (antibody, V domains shown)
VH: EVQLLESGAEVKKPGASVKVSCKASGYTFTSYYMHWVRQAPGQGLEWMGIINPSGGSTSYAQKFQGRVTMTRDTSTSTVYMELSSLRSEDTAVYYCARGGGHALDIWGQGTMVTVSS
VL: QSVLTQPPSVSGAPGQKVTISCSGSSSNIGNNYVSWYQQLPGTAPKLLIYDNNKRPSGIPDRFSGSKSGTSATLGITGLQTGDEADYYCGTWDSSLSAWVFGGGTKLTVL
B7: binds [4]; binds [5]; binds [6].

B8: FC05 (antibody, V domains shown)
VH: VQLLEQSGAEVKKPGASVRVSCKVSGYTLPEVAMHWVRQAPGKGLEWMGGFDPEDGETMYAQKFQGRVTMTEDTSTDTAYMELSSLRSEDTAVYYCATTTPFSSSYWFDPWGQGTLVTVSS
VL: QSVLTQAPSVSGAPGQKVTISCSGSSSNIGNNYVSWYQQLPGTAPKLLIYDNNKRPSGIPDRFSGSKSGTSATLGITGLQTGDEADYYCGTWDSSLSAVVFGGGTKLTVL
notes: also called FC05 mAb
B8: binds [3].
